Results reported in the supplement of paper PMC11316812.
± gives the standard deviation of the averaged measurements.

Experiments:
MCF7 = assay: percentage of EdU-negative (G0-arrested) nuclei per well, 72 h; higher = more G0 arrest; settings: reference: sequence is the full UniProt precursor, the tested protein was the secreted form or ectodomain
hTERT-HMEC = assay: as above; settings: reference: sequence is the full UniProt precursor, the tested protein was the secreted form or ectodomain
[1] = protein concentration 0.02175 µM
[2] = protein concentration 0.2175 µM
[3] = protein concentration 0.03125 µM
[4] = protein concentration 0.3125 µM
[5] = protein concentration 0.01975 µM
[6] = protein concentration 0.1975 µM
[7] = protein concentration 0.0225 µM
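Further: secreted proteins added to cultured cells, EdU pulse at the end, nuclei found by Hoechst imaging, EdU status from nuclear versus surrounding ring intensity ratio, PBS as neutral control.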

MTSSGPGPRFLLLLPLLLPPAASASDRPRGRDPVNPEKLLVITVATAETEGYLRFLRSAEFFNYTVRTLGLGEEWRGGDVARTVGGGQKVRWLKKEMEKYADREDMIIMFVDSYDVILAGSPTELLKKFVQSGSRLLFSAESFCWPEWGLAEQYPEVGTGKRFLNSGGFIGFATTIHQIVRQWKYKDDDDDQLFYTRLYLDPGLREKLSLNLDHKSRIFQNLNGALDEVVLKFDRNRVRIRNVAYDTLPIVVHGNGPTKLQLNYLGNYVPNGWTPEGGCGFCNQDRRTLPGGQPPPRVFLAVFVEQPTPFLPRFLQRLLLLDYPPDRVTLFLHNNEVFHEPHIADSWPQLQDHFSAVKLVGPEEALSPGEARDMAMDLCRQDPECEFYFSLDADAVLTNLQTLRILIEENRKVIAPMLSRHGKLWSNFWGALSPDEYYARSEDYVELVQRKRVGVWNVPYISQAYVIRGDTLRMELPQRDVFSGSDTDPDMAFCKSFRDKGIFLHLSNQHEFGRLLATSRYDTEHLHPDLWQIFDNPVDWKEQYIHENYSRALEGEGIVEQPCPDVYWFPLLSEQMCDELVAEMEHYGQWSGGRHEDSRLAGGYENVPTVDIHMKQVGYEDQWLQLLRTYVGPMTESLFPGYHTKARAVMNFVVRYRPDEQPSLRPHHDSSTFTLNVALNHKGLDYEGGGCRFLRYDCVISSPRKGWALLHPGRLTHYHEGLPTTWGTRYIMVSFVDP
percentage of EdU-negative (MCF7; [1]): 25.1 ± 1%
percentage of EdU-negative (MCF7; [2]): 28.2 ± 1.3%
percentage of EdU-negative (hTERT-HMEC; [1]): 5.45 ± 1.1%
percentage of EdU-negative (hTERT-HMEC; [2]): 8.17 ± 1.2%

MTSSLLLAFLLLAPTTVATPRAGGQCPACGGPTLELESQRELLLDLAKRSILDKLHLTQRPTLNRPVSRAALRTALQHLHGVPQGALLEDNREQECEIISFAETGLSTINQTRLDFHFSSDRTAGDREVQQASLMFFVQLPSNTTWTLKVRVLVLGPHNTNLTLATQYLLEVDASGWHQLPLGPEAQAACSQGHLTLELVLEGQVAQSSVILGGAAHRPFVAARVRVGGKHQIHRRGIDCQGGSRMCCRQEFFVDFREIGWHDWIIQPEGYAMNFCIGQCPLHIAGMPGIAASFHTAVLNLLKANTAAGTTGGGSCCVPTARRPLSLLYYDRDSNIVKTDIPDMVVEACGCS
percentage of EdU-negative (MCF7; [3]): 25.8 ± 2.3%
percentage of EdU-negative (MCF7; [4]): 27.7 ± 2.4%
percentage of EdU-negative (hTERT-HMEC; [3]): 4.58 ± 0.61%
percentage of EdU-negative (hTERT-HMEC; [4]): 5.17 ± 0.32%

MTSSLQRPWRVPWLPWTILLVSTAAASQNQERLCAFKDPYQQDLGIGESRISHENGTILCSKGSTCYGLWEKSKGDINLVKQGCWSHIGDPQECHYEECVVTTTPPSIQNGTYRFCCCSTDLCNVNFTENFPPPDTTPLSPPHSFNRDETIIIALASVSVLAVLIVALCFGYRMLTGDRKQGLHSMNMMEAAASEPSLDLDNLKLLELIGRGRYGAVYKGSLDERPVAVKVFSFANRQNFINEKNIYRVPLMEHDNIARFIVGDERVTADGRMEYLLVMEYYPNGSLCKYLSLHTSDWVSSCRLAHSVTRGLAYLHTELPRGDHYKPAISHRDLNSRNVLVKNDGTCVISDFGLSMRLTGNRLVRPGEEDNAAISEVGTIRYMAPEVLEGAVNLRDCESALKQVDMYALGLIYWEIFMRCTDLFPGESVPEYQMAFQTEVGNHPTFEDMQVLVSREKQRPKFPEAWKENSLAVRSLKETIEDCWDQDAEARLTAQCAEERMAELMMIWERNKSVSPTVNPMSTAMQNERNLSHNRRVPKIGPYPDYSSSSYIEDSIHHTDSIVKNISSEHSMSSTPLTIGEKNRNSINYERQQAQARIPSPETSVTSLSTNTTTTNTTGLTPSTGMTTISEMPYPDETNLHTTNVAQSIGPTPVCLQLTEEDLETNKLDPKEVDKNLKESSDENLMEHSLKQFSGPDPLSSTSSSLLYPLIKLAVEATGQQDFTQTANGQACLIPDVLPTQIYPLPKQQNLPKRPTSLPLNTKNSTKEPRLKFGSKHKSNLKQVETGVAKMNTINAAEPHVVTVTMNGVAGRNHSVNSHAATTQYANGTVLSGQTTNIVTHRAQEMLQNQFIGEDTRLNINSSPDEHEPLLRREQQAGHDEGVLDRLVDRRERPLEGGRTNSNNNNSNPCSEQDVLAQGVPSTAADPGPSKPRRAQRPNSLDLSATNVLDGSSIQIGESTQDGKSGSGEKIKKRVKTPYSLKRWRPSTWVISTESLDCEVNNNGSNRAVHSKSSTAVYLAEGGTATTMVSKDIGMNCL
percentage of EdU-negative (MCF7; [3]): 26.3 ± 0.7%
percentage of EdU-negative (MCF7; [4]): 24 ± 3.6%
percentage of EdU-negative (hTERT-HMEC; [3]): 4.72 ± 0.9%
percentage of EdU-negative (hTERT-HMEC; [4]): 6.26 ± 1.5%

MTSSRLWFSLLLAAAFAGRATALWPWPQNFQTSDQRYVLYPNNFQFQYDVSSAAQPGCSVLDEAFQRYRDLLFGSGSWPRPYLTGKRHTLEKNVLVVSVVTPGCNQLPTLESVENYTLTINDDQCLLLSETVWGALRGLETFSQLVWKSAEGTFFINKTEIEDFPRFPHRGLLLDTSRHYLPLSSILDTLDVMAYNKLNVFHWHLVDDPSFPYESFTFPELMRKGSYNPVTHIYTAQDVKEVIEYARLRGIRVLAEFDTPGHTLSWGPGIPGLLTPCYSGSEPSGTFGPVNPSLNNTYEFMSTFFLEVSSVFPDFYLHLGGDEVDFTCWKSNPEIQDFMRKKGFGEDFKQLESFYIQTLLDIVSSYGKGYVVWQEVFDNKVKIQPDTIIQVWREDIPVNYMKELELVTKAGFRALLSAPWYLNRISYGPDWKDFYIVEPLAFEGTPEQKALVIGGEACMWGEYVDNTNLVPRLWPRAGAVAERLWSNKLTSDLTFAYERLSHFRCELLRRGVQAQPLNVGFCEQEFEQT
percentage of EdU-negative (MCF7; [5]): 25.5 ± 0.27%
percentage of EdU-negative (MCF7; [6]): 26.4 ± 5.3%
percentage of EdU-negative (hTERT-HMEC; [5]): 5.032 ± 0.0092%
percentage of EdU-negative (hTERT-HMEC; [6]): 20.1 ± 1.8%

MTTQLPAYVAILLFYVSRASCQDTFTAAVYEHAAILPNATLTPVSREEALALMNRNLDILEGAITSAADQGAHIIVTPEDAIYGWNFNRDSLYPYLEDIPDPEVNWIPCNNRNRFGQTPVQERLSCLAKNNSIYVVANIGDKKPCDTSDPQCPPDGRYQYNTDVVFDSQGKLVARYHKQNLFMGENQFNVPKEPEIVTFNTTFGSFGIFTCFDILFHDPAVTLVKDFHVDTIVFPTAWMNVLPHLSAVEFHSAWAMGMRVNFLASNIHYPSKKMTGSGIYAPNSSRAFHYDMKTEEGKLLLSQLDSHPSHSAVVNWTSYASSIEALSSGNKEFKGTVFFDEFTFVKLTGVAGNYTVCQKDLCCHLSYKMSENIPNEVYALGAFDGLHTVEGRYYLQICTLLKCKTTNLNTCGDSAETASTRFEMFSLSGTFGTQYVFPEVLLSENQLAPGEFQVSTDGRLFSLKPTSGPVLTVTLFGRLYEKDWASNASSGLTAQARIIMLIVIAPIVCSLSW
percentage of EdU-negative (MCF7; [7]): 26.6 ± 0.41%
percentage of EdU-negative (MCF7; protein concentration 0.225 µM): 26.3 ± 2.3%
percentage of EdU-negative (hTERT-HMEC; [7]): 5.11 ± 0.53%
percentage of EdU-negative (hTERT-HMEC; protein concentration 0.225 µM): 4.83 ± 0.5%
